One molecule from publication PMC3663881 (Journal of biomolecular screening, 2013) can be followed below.

The target of this series is T1, RhaS-GB1201b (RhaS L201R-GB1basic) (UniProt P09377 1-278, L201R).
T1 sequence: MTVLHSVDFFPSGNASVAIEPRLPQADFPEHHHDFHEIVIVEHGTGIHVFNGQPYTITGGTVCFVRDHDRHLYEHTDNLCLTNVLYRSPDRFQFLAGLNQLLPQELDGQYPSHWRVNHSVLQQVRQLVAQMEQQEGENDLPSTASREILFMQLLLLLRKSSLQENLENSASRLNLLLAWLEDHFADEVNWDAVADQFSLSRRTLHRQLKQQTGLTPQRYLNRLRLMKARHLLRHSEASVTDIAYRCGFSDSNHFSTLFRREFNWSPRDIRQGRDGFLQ
Briefly: EMSA.

B1: rhaBAD RhaS site probe (oligos 3058/3288) (dsDNA)
DNA 1: ACGTTCATCTTTCCCTGGTTGCCAATGGCCCATTTTCCTGTCAGTAACGAGAAGGTCGCGAA
DNA 2: TTCGCGACCTTCTCGTTACTGACAGGAAAATGGGCCATTGGCAACCAGGGAAAGATGAACGT
Turning to B1, the binding result is listed as “binds”.
